Test results as given in publication doi:10.1101/869909.

Target: HSP27 ACD domain (α-crystallin domain), monomeric (human)
Assay: ITC

Chain of HSP27 ACD domain (α-crystallin domain), monomeric (human) (P04792 76-184): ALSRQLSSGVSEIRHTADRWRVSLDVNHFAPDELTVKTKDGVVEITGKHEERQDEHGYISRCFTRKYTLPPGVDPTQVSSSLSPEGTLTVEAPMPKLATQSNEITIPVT

## EITIPVTHE [HSP27 IXI peptide 178-…-186 (F185H), without biotin]
  Kd: 14.3 µM
